What was measured:
[1] = target: IGF1R on the human colon carcinoma cell line Colo205 (human, UniProt P08069 31-1367); assay: cell-based or functional assay
IGF1R = IGF1R (UniProt P08069 31-932, limits assumed); assay: cell-based or functional assay

B1: 2.12.1.fx antibody (antibody, human IgG2, kappa, V domains shown)
VH: QVQLVESGGGLVKPGGSLRLSCAASGFTFSDYYMSWIRQAPGKGLEWVSYISSSGSTRDYADSVKGRFTISRDNAKNSLYLQMNSLRAEDTAVYYCVRDGVETTFYYYYYGMDVWGQGTTVTVSS
VL: DIQMTQSPSSLSASVGDRVTITCRASQDIRRDLGWYQQKPGKAPKRLIYAASRLQSGVPSRFSGSGSGTEFTLTISSLQPEDFATYYCLQHNNYPRTFGQGTKLVIKR
% IGF1R downregulated [1]: 48% | % IGF1R downregulated (IGF1R): 36%

Source: patent US20130323234A1 (Pfizer, published 2013)
